{"source": "the RNAGym collection of RNA variant scans (doi:10.1073/pnas.2313332121)", "parents": {"B1": {"name": "TPR 5TU (parent)", "chain": "GGAUCUUCUCGAUCUAACAAAAAAGACAAAUCUGCCACAAAGCUUGAGAGCAUCUUCGGAUGCAGAGGCGGCAGCCUUCGGUGGCGCGAUAGCGCCAACGUUCUCAACUAUGACACGCAAAACGCGUGCUCCGUUGAAUGGAGUUUAUCAUG"}}, "note": "Fewer inactive variants are shown than the library holds."}
{"variants_of": "B1", "experiment": "polymerase ribozyme fitness, log enrichment relative to wild type (log ratio); higher = more active; in vitro selection for triplet polymerase activity", "method_in_brief": "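Fitness compares each genotype's enrichment to that of the wild type on a logarithmic scale, averaging replicates with inverse-variance weights. The logarithm is base 2. Enrichment came from Illumina sequencing of input and output libraries after one triplicate round of in vitro selection, which included frozen incubation at −7 °C, of PCR-built, transcribed mutant libraries of each subunit of a heterodimeric triplet polymerase ribozyme. Only genotypes with ≥10 input reads and ≥1 read per output were kept.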"}
{"variant": "A41U G86U", "polymerase ribozyme fitness (log ratio)": -1.92}
{"variant": "A41G U53A G59C A98G U102C G133A", "polymerase ribozyme fitness (log ratio)": "≤ -4.2"}
{"variant": "A41C U61G C79U G84C", "polymerase ribozyme fitness (log ratio)": "≤ -4.2"}
{"variant": "U44A C85U C87A G117U C149U", "polymerase ribozyme fitness (log ratio)": "≤ -4.2"}
{"variant": "G42U U55G G59A G88U C96G A98G", "polymerase ribozyme fitness (log ratio)": "≤ -4.2"}
{"variant": "C43G A64C A73C C87A C105G", "polymerase ribozyme fitness (log ratio)": "≤ -4.2"}
{"variant": "G42A C54G A91U", "polymerase ribozyme fitness (log ratio)": "≤ -4.2"}
{"variant": "U45G C93U G141C", "polymerase ribozyme fitness (log ratio)": "≤ -4.2"}
{"variant": "G46A A49G G50A A52U C96U C123G U139A G143C", "polymerase ribozyme fitness (log ratio)": "≤ -4.2"}
{"variant": "C43U C51A G86U G126A A137C", "polymerase ribozyme fitness (log ratio)": "≤ -4.2"}
{"variant": "U44A C95A", "polymerase ribozyme fitness (log ratio)": -4.11}
{"variant": "U44A C95U", "polymerase ribozyme fitness (log ratio)": -3.87}
{"variant": "A41C U82A C125A", "polymerase ribozyme fitness (log ratio)": -0.821}
{"variant": "A41G U61A A113U", "polymerase ribozyme fitness (log ratio)": -2.93}
{"variant": "C43U C99G", "polymerase ribozyme fitness (log ratio)": "≤ -4.2"}
{"variant": "A41U G88C", "polymerase ribozyme fitness (log ratio)": "≤ -4.2"}
{"variant": "U44G G92C", "polymerase ribozyme fitness (log ratio)": "≤ -4.2"}
{"variant": "C43U A147U", "polymerase ribozyme fitness (log ratio)": -4.06}
{"variant": "U45A G59C C85U G86A G92U U146G", "polymerase ribozyme fitness (log ratio)": "≤ -4.2"}
{"variant": "A41U C72G C76U A119G U134G A142U", "polymerase ribozyme fitness (log ratio)": "≤ -4.2"}
{"variant": "G42U G58A G70U A73G G84U C85U U144G A150U", "polymerase ribozyme fitness (log ratio)": "≤ -4.2"}
{"variant": "G42A G83C C96G C105U A110G U139C", "polymerase ribozyme fitness (log ratio)": "≤ -4.2"}
{"variant": "G42A C72U A91U", "polymerase ribozyme fitness (log ratio)": "≤ -4.2"}
{"variant": "U44G G65A G68A", "polymerase ribozyme fitness (log ratio)": "≤ -4.2"}
{"variant": "U45A A49G C57A U61G G68U C114U A150U", "polymerase ribozyme fitness (log ratio)": "≤ -4.2"}
{"variant": "U44A G50U C75G C79U C87A C125U", "polymerase ribozyme fitness (log ratio)": "≤ -4.2"}
{"variant": "C43G A47C U104G", "polymerase ribozyme fitness (log ratio)": "≤ -4.2"}
{"variant": "G42C G46C G70C C95G U101G C129A C132G", "polymerase ribozyme fitness (log ratio)": "≤ -4.2"}
{"variant": "A41G G84U C116U G136U", "polymerase ribozyme fitness (log ratio)": -3.6}
{"variant": "G42A U55A C85U A97U G140C", "polymerase ribozyme fitness (log ratio)": "≤ -4.2"}
{"variant": "A41G A49C U55C C69A C85U C108U", "polymerase ribozyme fitness (log ratio)": "≤ -4.2"}
{"variant": "A41U C54A C93A G126U", "polymerase ribozyme fitness (log ratio)": "≤ -4.2"}
{"variant": "U45G G46A A64U G71U G81A A89G A142G", "polymerase ribozyme fitness (log ratio)": "≤ -4.2"}
{"variant": "U44A C93G A113G U134A", "polymerase ribozyme fitness (log ratio)": "≤ -4.2"}
{"variant": "G42C C72U G92C C96U", "polymerase ribozyme fitness (log ratio)": "≤ -4.2"}
{"variant": "C43G G50A C85U", "polymerase ribozyme fitness (log ratio)": "≤ -4.2"}
{"variant": "U44C C51U G92U C96G U102G G128C", "polymerase ribozyme fitness (log ratio)": "≤ -4.2"}
{"variant": "A41G G65A", "polymerase ribozyme fitness (log ratio)": -0.45}
{"variant": "U44C U61C A64G C85U C87G C95A C96G C99A G136A", "polymerase ribozyme fitness (log ratio)": "≤ -4.2"}
{"variant": "U45A U53C C57U C85A C96A C123U C125A A142C", "polymerase ribozyme fitness (log ratio)": "≤ -4.2"}
{"variant": "U44G U45G A97C", "polymerase ribozyme fitness (log ratio)": "≤ -4.2"}
{"variant": "U45A G48C G50C U53A U56A U61G C105G A119G G136U", "polymerase ribozyme fitness (log ratio)": "≤ -4.2"}
{"variant": "G42A C79U U139A U145A C149G", "polymerase ribozyme fitness (log ratio)": "≤ -4.2"}
{"variant": "G42A C54G C95U A107U C118G", "polymerase ribozyme fitness (log ratio)": "≤ -4.2"}
{"variant": "G42C U111A", "polymerase ribozyme fitness (log ratio)": "≤ -4.2"}
{"variant": "A41U G141A A150G", "polymerase ribozyme fitness (log ratio)": -4.16}
{"variant": "C43A C63U C69A G94A C123A U134A G141C", "polymerase ribozyme fitness (log ratio)": "≤ -4.2"}
{"variant": "A41U U56A", "polymerase ribozyme fitness (log ratio)": -0.813}
{"variant": "G46A A47G C72A C108U U144A", "polymerase ribozyme fitness (log ratio)": "≤ -4.2"}
{"variant": "A41U C57G C123A", "polymerase ribozyme fitness (log ratio)": -2.99}
{"variant": "U44A C57A C93A G133C", "polymerase ribozyme fitness (log ratio)": "≤ -4.2"}
{"variant": "A41U A60U G84A C95G C105U A110U", "polymerase ribozyme fitness (log ratio)": "≤ -4.2"}
{"variant": "A41U G92A", "polymerase ribozyme fitness (log ratio)": -3.1}
{"variant": "U45G G83C G117A", "polymerase ribozyme fitness (log ratio)": -1.29}
{"variant": "G42U C76A C93U C96U U145C", "polymerase ribozyme fitness (log ratio)": "≤ -4.2"}
{"variant": "U44A C54U", "polymerase ribozyme fitness (log ratio)": -3.59}
{"variant": "G42U G62U C63A C69U C99A C103G C108A", "polymerase ribozyme fitness (log ratio)": "≤ -4.2"}
{"variant": "A41U G58A G81C", "polymerase ribozyme fitness (log ratio)": -0.606}
{"variant": "C43A C54U", "polymerase ribozyme fitness (log ratio)": "≤ -4.2"}
{"variant": "G42C A60G C79A C87U C105G C118A G124C", "polymerase ribozyme fitness (log ratio)": "≤ -4.2"}
{"variant": "A41U G46A U61A G84U C105U C118U", "polymerase ribozyme fitness (log ratio)": -3.26}
{"variant": "C43A U56A G67A G88A G112C C114U", "polymerase ribozyme fitness (log ratio)": "≤ -4.2"}
{"variant": "A41C U56A G70U C75G C93U C132U G136C", "polymerase ribozyme fitness (log ratio)": "≤ -4.2"}
{"variant": "C43A A52G G83A G124U G143A", "polymerase ribozyme fitness (log ratio)": "≤ -4.2"}
{"variant": "A41U C99A A106U C118A A119G U134C", "polymerase ribozyme fitness (log ratio)": "≤ -4.2"}
{"variant": "A41U G58A A60U C93G", "polymerase ribozyme fitness (log ratio)": "≤ -4.2"}
{"variant": "A41U A52G C96A", "polymerase ribozyme fitness (log ratio)": -3.24}
{"variant": "U45A A52C A73C A91U U101C", "polymerase ribozyme fitness (log ratio)": "≤ -4.2"}
{"variant": "C43A C93G G133A", "polymerase ribozyme fitness (log ratio)": "≤ -4.2"}
{"variant": "A41U G42C C76G", "polymerase ribozyme fitness (log ratio)": "≤ -4.2"}
{"variant": "U44C A98G", "polymerase ribozyme fitness (log ratio)": -3.97}
{"variant": "A41G C54U", "polymerase ribozyme fitness (log ratio)": 0.979}
{"variant": "C43G C125A U146A U148A", "polymerase ribozyme fitness (log ratio)": "≤ -4.2"}
{"variant": "G46A C51A A98G C125U", "polymerase ribozyme fitness (log ratio)": "≤ -4.2"}
{"variant": "U45A U56A G65C A91U G92A U130C A147U", "polymerase ribozyme fitness (log ratio)": "≤ -4.2"}
{"variant": "G42U A98G U139C", "polymerase ribozyme fitness (log ratio)": "≤ -4.2"}
{"variant": "U45A G50C C54G G67A C87A A91U A115C", "polymerase ribozyme fitness (log ratio)": "≤ -4.2"}
{"variant": "A41U U55G", "polymerase ribozyme fitness (log ratio)": -0.663}
{"variant": "G42U A91U", "polymerase ribozyme fitness (log ratio)": "≤ -4.2"}
{"variant": "A41U C57G A120G", "polymerase ribozyme fitness (log ratio)": -2.19}
{"variant": "U44A A47C C57U G128C", "polymerase ribozyme fitness (log ratio)": "≤ -4.2"}
{"variant": "U44A A107U", "polymerase ribozyme fitness (log ratio)": -0.956}
{"variant": "U45A G81C C96G", "polymerase ribozyme fitness (log ratio)": -3.93}
{"variant": "C43U C69U A91C A137C", "polymerase ribozyme fitness (log ratio)": "≤ -4.2"}
